This note sets out measurements from publication PMC4914982.

Among the targets are sfGFP-N149Y; sfGFP-N149Y/Q204H; sfGFP-N149Y/Q204H/I167T; sfGFP-N149Y/Q204H/I188V; sfGFP-Q204H.
Assay in all cases: SEC + native gel or EMSA; SEC: Superdex S200 10/300 GL, PBS pH 7.4, approximately 500 ul of 1 mg/ml protein injected, UV 280 nm; semi-native PAGE: 12% SDS-PAGE, Laemmli buffer with 0.2% SDS and 12.5 mM EDTA, no beta-mercaptoethanol, samples not heated; monomer to dimer
(Mobility shift assays separate free from complexed probe on a gel.)

Assay [1] concerns the target sfGFP-N149Y/Q204H/I167T/I188V.

For orientation: stoichiometry N means a count of units in the complex or per binding partner. Regarding sfGFP-N149Y, in the assay with sfGFP-N149Y, the stoichiometry N was determined as 2.

Consider sfGFP-N149Y/Q204H, for which the stoichiometry N with sfGFP-N149Y/Q204H came out at 2.

With sfGFP-N149Y/Q204H/I167T, in the assay with sfGFP-N149Y/Q204H/I167T, the stoichiometry N came out at 2. On to sfGFP-N149Y/Q204H/I167T/I188V, for which the stoichiometry N in assay [1] came to 2.

For the substance sfGFP-N149Y/Q204H/I188V, the stoichiometry N with sfGFP-N149Y/Q204H/I188V worked out at 2. For sfGFP-Q204H, the stoichiometry N with sfGFP-Q204H was determined as 2.
